# Test results published in IntAct's records for PubMed 15791205.
# B1: Angiotensin-converting enzyme 2 (Rattus norvegicus (Rat)), Q5EGZ1 (parent)
# chain: MSSSCWLLLSLVAVATAQSLIEEKAESFLNKFNQEAEDLSYQSSLASWNYNTNITEENAQKMNEAAAKWSAFYEEQSKIAQNFSLQEIQNATIKRQLKALQQSGSSALSPDKNKQLNTILNTMSTIYSTGKVCNSMNPQECFLLEPGLDEIMATSTDYNRRLWAWEGWRAEVGKQLRPLYEEYVVLKNEMARANNYEDYGDYWRGDYEAEGVEGYNYNRNQLIEDVENTFKEIKPLYEQLHAYVRTKLMEVYPSYISPTGCLPAHLLGDMWGRFWTNLYPLTTPFLQKPNIDVTDAMVNQSWDAERIFKEAEKFFVSVGLPQMTPGFWTNSMLTEPGDDRKVVCHPTAWDLGHGDFRIKMCTKVTMDNFLTAHHEMGHIQYDMAYAKQPFLLRNGANEGFHEAVGEIMSLSAATPKHLKSIGLLPSNFQEDNETEINFLLKQALTIVGTLPFTYMLEKWRWMVFQDKIPREQWTKKWWEMKREIVGVVEPLPHDETYCDPASLFHVSNDYSFIRYYTRTIYQFQFQEALCQAAKHDGPLHKCDISNSTEAGQKLLNMLSLGNSGPWTLALENVVGSRNMDVKPLLNYFQPLFVWLKEQNRNSTVGWSTDWSPYADQSIKVRISLKSALGKNAYEWTDNEMYLFRSSVAYAMREYFSREKNQTVPFGEADVWVSDLKPRVSFNFFVTSPKNVSDIIPRSEVEEAIRMSRGRINDIFGLNDNSLEFLGIYPTLKPPYEPPVTIWLIIFGVVMGTVVVGIVILIVTGIKGRKKKNETKREENPYDSMDIGKGESNAGFQNSDDAQTSF
# Variants of: B1
# Conditions: with spike_sars S
row,Variant,effect of a mutation on the interaction
1,N82M;F83Y;S84P,causing an interaction
2,H353K,causing an interaction
3,N82M;F83Y;S84P;H353K,causing an interaction

# Variants of: B1
# Conditions: with spike_sars S
# Remark: another data set of the same source
row,Variant,effect of a mutation on the interaction
1,N82M;F83Y;S84P;H353K,causing an interaction
